Experimental data: patent US20200347144A1 (SHANGHAI HYAMAB BIOTECH, published 2020)
Positions count from the first letter of the chain named. One block for each binder: values may come before it.

How the values were obtained:
[1] = target: T1, human 4-1BB, full length, on transfected cells (human, UniProt Q07011 24-255); experiment: FACS, CHOK1-h4-1BB cells; Ab 2 ug/ml
T1 construct: whole, on cells; also called CHOK1-h4-1BB
Description: (§1) The pIRES plasmid carrying the full-length gene of monkey-derived […] (the preparation method is the same as the preparation method of the pCpC vector carrying the human-derived IgG Fc fragment (hFc) in “Preparation of immunogen A” of the step (1) in Example 1, in which the database accession number of the amino acid sequence of the extracellular region of monkey 4-1BB protein (Phe19-Thr239) is G7PSE7) was transfected into CHOK1 cell line to obtain CHOK1 stable transfected cell line containing monkey 4-1BB (herein referred to as CHOK1-c4-1BB stable cell line). The CHOK1-h4-1BB stable cell line and the CHOK1-c4-1BB stable cell line were expanded and cultivated to 90% confluence in T-75 cell culture flasks. The medium was exhausted, and washed twice with HBSS buffer (Hanks Balanced Salt Solution, purchased from Invitrogen), and then the cells were treated and collected with enzyme-free cell dissociation solution (Versene solution, purchased from Life Technology). The cells were washed twice with HBSS buffer, and after cell counting, the cells were diluted with HBSS buffer to 2×10⁶ cells per ml, and 1% goat serum blocking solution was added, the percentage being the mass percentage. It was incubated on ice for 30 minutes, and then washed twice with HBSS buffer by centrifugation. The collected cells were suspended in FACS buffer (HBSS containing 1% BSA, the percentage was the mass percentage) to 2×10⁶ cells/mL, and 100 μl per well was added to a 96-well FACS reaction plate. The purified 4-1BB antibody test sample obtained in Example 2 was added, 100 microliters per well and incubated on ice for 2 hours. […] It was washed three times with FACS buffer by centrifugation, and 100 μl of fixative [4% (v/v) paraformaldehyde] per well was added to suspend cells, and washed twice with FACS buffer after 10 minutes by centrifugation. The cells were suspended with 100 microliters of FACS buffer, and the results were detected and analyzed with FACS (FACS Calibur, purchased from BD).

[2] = target: T2, monkey 4-1BB on CHOK1 cells (monkey); experiment: FACS, CHOK1-c4-1BB cells; Ab 2 ug/ml
T2 construct: whole, on cells; also called CHOK1-c4-1BB
Description: as §1

[3] = target: T1, human 4-1BB, full length, on …; experiment: FACS, CHOK1-h4-1BB cells; Ab 10 ug/ml
Description: as §1

[4] = target: T2, monkey 4-1BB on CHOK1 cells; experiment: FACS, CHOK1-c4-1BB cells; Ab 10 ug/ml
Description: as §1

[5] = target: T1, human 4-1BB, full length, on …; experiment: FACS, CHOK1-h4-1BB cells; Ab 0.4 ug/ml
Description: as §1

[6] = target: T2, monkey 4-1BB on CHOK1 cells; experiment: FACS, CHOK1-c4-1BB cells; Ab 0.4 ug/ml
Description: as §1

[7] = target: T1, human 4-1BB, full length, on …; experiment: FACS, CHOK1-h4-1BB cells; Ab 0.016 ug/ml
Description: as §1

[8] = target: T1, human 4-1BB, full length, on …; experiment: FACS, CHOK1-h4-1BB cells; Ab 0.0032 ug/ml
Description: as §1

[9] = target: T3, hFc-tagged human 4-1BB extracellular domain protein (4-1BB-hFc) (human, UniProt Q07011 24-186, limits assumed); experiment: ELISA, coated human 4-1BB-hFc; Ab 10 ug/ml
T3 construct: also called immunogen A; 4-1BB^ECD-hFc; not shown: human IgG Fc fragment (hFc) of the pCpC vector
Procedure: (§2) The purified immunogen A (4-1BB-hFc), monkey 4-1BB-his, and mouse 4-1BB-his obtained in Example 1 [for the preparation method, see step 1 of Example 1, preparation of immunogen A], of which the extracellular domain of monkey-derived 4-1BB protein (purchased from ACRO biosystems), the extracellular domain of mouse 4-1BB protein (purchased from sino biological) or other immune detection point proteins respectively were diluted with PBS to a final concentration of 1.0 μg/mL, then added with […] per well to 96-well ELISA plate. It was sealed with plastic film and incubated at 4° C. overnight. The next day, the plate was washed twice with the plate-washing solution [PBS containing 0.01% (v/v) Tween20] and blocking solution [PBS containing 0.01% (v/v) Tween 20 and 1% (v/v) BSA] was added and blocked at room temperature for 2 hours. The blocking solution was discarded and 100 μl of the purified 4-1BB antibody obtained in Example 2 was added per well. After incubated at 37° C. for 2 hours, the plate was washed 3 times with a plate-washing solution [PBS containing 0.01% (v/v) Tween20]. A secondary antibody (purchased from Sigma) labeled with HRP (horseradish peroxidase) was added, and after incubated at 37° C. for 2 hours, the plate was washed 3 times with a plate-washing solution [PBS containing 0.01% (v/v) Tween20]. 100 μl of TMB substrate was added per well. After incubated for 30 minutes at room temperature, 100 μl of stop buffer (1.0N HCl) was added per well. The A450 nm values were read using an ELISA plate reader (SpectraMax 384plus, Molecular Device).

[10] = target: T1, human 4-1BB, full length, on …; experiment: FACS, CHOK1-h4-1BB cells; Ab 0.00064 ug/ml
Description: as §1

[11] = target: T2, monkey 4-1BB on CHOK1 cells; experiment: FACS, CHOK1-c4-1BB cells; Ab 0.00013 ug/ml
Description: as §1

[12] = target: T3, hFc-tagged human 4-1BB extracellular …; experiment: ELISA, coated human 4-1BB-hFc; Ab 0.016 ug/ml
Procedure: as §2

[13] = target: T1, human 4-1BB, full length, on …; experiment: FACS on CHOK1-h4-1BB cells, Alexa 488 secondary antibody, average fluorescence intensity
Description: as §1

[14] = target: T3, hFc-tagged human 4-1BB extracellular …; experiment: ELISA: human 4-1BB-hFc coated at 1.0 µg/mL, antibody titrated, HRP secondary antibody, OD450
Procedure: as §2

T1 sequence (Q07011 24-255): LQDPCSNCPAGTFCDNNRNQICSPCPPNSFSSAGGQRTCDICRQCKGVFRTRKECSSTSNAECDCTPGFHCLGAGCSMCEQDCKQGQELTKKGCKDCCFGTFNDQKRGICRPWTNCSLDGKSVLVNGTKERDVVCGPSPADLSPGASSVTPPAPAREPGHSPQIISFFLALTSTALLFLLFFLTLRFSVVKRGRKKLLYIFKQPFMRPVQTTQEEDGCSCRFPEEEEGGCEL

B2: 258F5A8 (antibody, V domains shown)
VH: QVQLVESGGGVVQPGRSLRLSCAASGFTFSSYGMHWVRQAPGKGLEWVAVIWYDGSNKYYADSVKGRFNISRDNSKNTLYLQMNSLRAEDTAVYYCARGPYLYSSGWYDYYYYGMDVWGQGTTVTVSS
VL: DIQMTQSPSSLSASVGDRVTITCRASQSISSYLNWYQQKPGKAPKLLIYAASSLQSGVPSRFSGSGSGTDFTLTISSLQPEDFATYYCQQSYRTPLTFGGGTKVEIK
average fluorescence intensity [1]: 766 MFI | average fluorescence intensity [2]: 112 MFI | average fluorescence intensity [3]: 835 MFI | average fluorescence intensity [4]: 131 MFI | average fluorescence intensity [5]: 591 MFI | average fluorescence intensity [6]: 71.4 MFI | average fluorescence intensity [7]: 68 MFI | average fluorescence intensity [8]: 21.1 MFI | OD450 nm [9]: 2.68 OD450 nm | average fluorescence intensity [10]: 7 MFI | average fluorescence intensity [11]: 2.5 MFI | OD450 nm [12]: 1.06 OD450 nm | EC50 (read off the curve) [13]: ~0.2 µg/mL | EC50 (read off the curve) [14]: ~0.02 µg/mL

B5: 170D7F2 (antibody, V domains shown)
VH: QVQLVQSGAEVKKPGASVKVSCKASGYTFTSYDINWVRQATGQGLEWMGWMNPNSGNTGYAQKFQGRVTMTRNTSISTAYMELSSLRSEDTAVYYCARETGPFDYWGQGTLVTVSS
VL: DIQMTQSPSSLSASVGDRVTITCRASQRINNYLNWYQQKPGKAPKLLIYGASSLQSGVPSRFSGSGSGTDFTLTISSLQPEDFATYYCQQSYSTPFTFGPGTKVDIK
average fluorescence intensity [1]: 736 MFI | average fluorescence intensity [2]: 621 MFI | average fluorescence intensity [3]: 735 MFI | average fluorescence intensity [4]: 700 MFI | average fluorescence intensity [5]: 540 MFI | average fluorescence intensity [6]: 304 MFI | average fluorescence intensity [7]: 48.8 MFI | average fluorescence intensity [8]: 14 MFI | OD450 nm [9]: 3.44 OD450 nm | average fluorescence intensity [10]: 4.9 MFI | average fluorescence intensity [11]: 2.6 MFI | OD450 nm [12]: 1.64 OD450 nm | EC50 (read off the curve) [13]: ~0.2 µg/mL | EC50 (read off the curve) [14]: ~0.02 µg/mL

B6: 182A5B3 (antibody, V domains shown)
VH: B5 VH with A61V
VL: not shown
average fluorescence intensity [1]: 760 MFI | average fluorescence intensity [2]: 712 MFI | average fluorescence intensity [3]: 769 MFI | average fluorescence intensity [4]: 746 MFI | average fluorescence intensity [5]: 530 MFI | average fluorescence intensity [6]: 373 MFI | average fluorescence intensity [7]: 52.7 MFI | average fluorescence intensity [8]: 14.8 MFI | OD450 nm [9]: 3.5 OD450 nm | average fluorescence intensity [10]: 5 MFI | average fluorescence intensity [11]: 2.7 MFI | OD450 nm [12]: 1.48 OD450 nm | EC50 (read off the curve) [13]: ~0.2 µg/mL | EC50 (read off the curve) [14]: ~0.02 µg/mL

More lines, now with the values ahead:

average fluorescence intensity [1]: 486 MFI | average fluorescence intensity [2]: 305 MFI | average fluorescence intensity [3]: 489 MFI | average fluorescence intensity [4]: 342 MFI | average fluorescence intensity [5]: 413 MFI | average fluorescence intensity [6]: 159 MFI | average fluorescence intensity [7]: 46.9 MFI | average fluorescence intensity [8]: 13 MFI | OD450 nm [9]: 3.43 OD450 nm | average fluorescence intensity [10]: 49.5 MFI | average fluorescence intensity [11]: 17.6 MFI | OD450 nm [12]: 1.65 OD450 nm | EC50 (read off the curve) [13]: ~0.1 µg/mL | EC50 (read off the curve) [14]: ~0.02 µg/mL
B1: 172E3E3 (antibody, V domains shown)
VH: QVQLQESGPGLVKPSGTLSLTCAVSGGSISSSNWWSWVRQPPGKGLEWIGEIYHSGSTNYNPSLKSRVTISVDKSKNQLSLNLSSVTAADTAVYYCARQGGVAGTLYWYFDLWGRGTLVTVSS
VL: DIVMTQSPLSLPVTPGEPASISCRSSQGLLHSNGYNYLDWYLQKPGQSPQLLIYLGSNRASGVPDRFIGSGSGTDFTLKIRRVEAEDVGVYYCMQVLQTPWTFGQGTKVEIK

average fluorescence intensity [1]: 803 MFI | average fluorescence intensity [2]: 107 MFI | average fluorescence intensity [3]: 827 MFI | average fluorescence intensity [4]: 126 MFI | average fluorescence intensity [5]: 625 MFI | average fluorescence intensity [6]: 64.3 MFI | average fluorescence intensity [7]: 67.2 MFI | average fluorescence intensity [8]: 19.4 MFI | OD450 nm [9]: 2.8 OD450 nm | average fluorescence intensity [10]: 7.1 MFI | average fluorescence intensity [11]: 2.5 MFI | OD450 nm [12]: 1.29 OD450 nm | EC50 (read off the curve) [13]: ~0.2 µg/mL | EC50 (read off the curve) [14]: ~0.02 µg/mL
B3: 259G10E11 (antibody, V domains shown)
VH: B2 VH with N69T
VL: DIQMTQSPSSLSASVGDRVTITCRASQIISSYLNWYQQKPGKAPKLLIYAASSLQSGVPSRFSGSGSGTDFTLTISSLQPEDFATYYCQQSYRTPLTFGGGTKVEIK

average fluorescence intensity [1]: 1690 MFI | average fluorescence intensity [2]: 93.5 MFI | average fluorescence intensity [3]: 1780 MFI | average fluorescence intensity [4]: 124 MFI | average fluorescence intensity [5]: 1120 MFI | average fluorescence intensity [6]: 56.5 MFI | average fluorescence intensity [7]: 85.6 MFI | average fluorescence intensity [8]: 22.9 MFI | OD450 nm [9]: 2.75 OD450 nm | average fluorescence intensity [10]: 8 MFI | average fluorescence intensity [11]: 2.4 MFI | OD450 nm [12]: 1.23 OD450 nm | EC50 (read off the curve) [13]: ~0.3 µg/mL | EC50 (read off the curve) [14]: ~0.02 µg/mL
B4: 263A11E3 (antibody, V domains shown)
VH: QVQLQESGPGLVKPSETLSLTCAVSGYSISSGYYWGWIRQPPGKGLEWIGSIYHSGSTSYNPSLRSRVTISVDTSKNQFSLKLSSVTAADTAVYYCARDAGGFDYWGQGTLVTVSS
VL: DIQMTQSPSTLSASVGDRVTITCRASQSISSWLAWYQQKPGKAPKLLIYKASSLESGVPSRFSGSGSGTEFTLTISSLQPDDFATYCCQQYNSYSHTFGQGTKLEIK

average fluorescence intensity [1]: 520 MFI | average fluorescence intensity [2]: 576 MFI | average fluorescence intensity [3]: 498 MFI | average fluorescence intensity [4]: 736 MFI | average fluorescence intensity [5]: 431 MFI | average fluorescence intensity [6]: 298 MFI | average fluorescence intensity [7]: 58.7 MFI | average fluorescence intensity [8]: 18.3 MFI | OD450 nm [9]: 3.55 OD450 nm | average fluorescence intensity [10]: 6.4 MFI | average fluorescence intensity [11]: 3 MFI | OD450 nm [12]: 1.55 OD450 nm | EC50 (read off the curve) [13]: ~0.1 µg/mL | EC50 (read off the curve) [14]: ~0.02 µg/mL
B7: 11H10C9 (antibody, V domains shown)
VH: QVQLVESGGGVVQPGRSLRLSCAASGFTFSSYAMHWVRQAPGKGLEWVAIIWYDGSNQYYADSVKGRFTISRDNSMNTLYLQMNSLRAEDTAVYYCARVEQWLVSYFDFWGQGTLVTVSS
VL: EIVMTQSPATLSVSPGERATLSCRASQSVSSNLAWYQQKPGQVPRLLIYGASTRATGIPARFSGSGSGTEFTLTISSLQSEDFAVYYCQQYNNWPTFGGGTKVEIK
